In the supplement of paper PMC9112550, “Optimization of the antimicrobial peptide Bac7 by deep mutational scanning” (BMC Biology, 2022):

System: Escherichia coli TOP10
Assay: shrunken log2 fold change of peptide-encoding DNA abundance (4.5 h post-induction vs induction); higher = less antimicrobial activity (less host growth inhibition)
Conditions: time post-induction: 4.5 h; library: site-saturation at positions 5, 18, 19, 20
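Also: peptides expressed intracellularly from a pBAD plasmid library in pooled LB shake-flask culture, induced with 0.3% L-arabinose, DNA abundance read by NGS, three biological replicates, DESeq2 with apeglm shrinkage.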

RRIRPRPPRLPRPRPRPDAIPRP
shrunken log2 fold change: 0.148

RRIRPRPPRLPRPRPRPDCQPRP
shrunken log2 fold change: -0.0657

RRIRPRPPRLPRPRPRPDDCPRP
shrunken log2 fold change: -0.0649

RRIRPRPPRLPRPRPRPDDHPRP
shrunken log2 fold change: -0.0314

RRIRPRPPRLPRPRPRPDDRPRP
shrunken log2 fold change: 0.162

RRIRPRPPRLPRPRPRPDEHPRP
shrunken log2 fold change: -0.205

RRIRPRPPRLPRPRPRPDEIPRP
shrunken log2 fold change: -0.144

RRIRPRPPRLPRPRPRPDEMPRP
shrunken log2 fold change: 0.377

RRIRPRPPRLPRPRPRPDEQPRP
shrunken log2 fold change: 0.318

RRIRPRPPRLPRPRPRPDGFPRP
shrunken log2 fold change: -0.0011

RRIRPRPPRLPRPRPRPDGHPRP
shrunken log2 fold change: 0.0433

RRIRPRPPRLPRPRPRPDGIPRP
shrunken log2 fold change: 0.0121

RRIRPRPPRLPRPRPRPDHNPRP
shrunken log2 fold change: -0.675

RRIRPRPPRLPRPRPRPDIFPRP
shrunken log2 fold change: 0.0196

RRIRPRPPRLPRPRPRPDIGPRP
shrunken log2 fold change: -0.0448

RRIRPRPPRLPRPRPRPDIMPRP
shrunken log2 fold change: -0.0454

RRIRPRPPRLPRPRPRPDKCPRP
shrunken log2 fold change: -0.432

RRIRPRPPRLPRPRPRPDKTPRP
shrunken log2 fold change: 0.015

RRIRPRPPRLPRPRPRPDLIPRP
shrunken log2 fold change: -0.036

RRIRPRPPRLPRPRPRPDMGPRP
shrunken log2 fold change: -0.407

RRIRPRPPRLPRPRPRPDPVPRP
shrunken log2 fold change: 0.214

RRIRPRPPRLPRPRPRPDQGPRP
shrunken log2 fold change: -0.0018

RRIRPRPPRLPRPRPRPDSRPRP
shrunken log2 fold change: 0.0317

RRIRPRPPRLPRPRPRPDTAPRP
shrunken log2 fold change: -0.0311

RRIRPRPPRLPRPRPRPDTHPRP
shrunken log2 fold change: -0.119

RRIRPRPPRLPRPRPRPEAMPRP
shrunken log2 fold change: 0.0142

RRIRPRPPRLPRPRPRPEAWPRP
shrunken log2 fold change: -0.0196

RRIRPRPPRLPRPRPRPECGPRP
shrunken log2 fold change: 0.525

RRIRPRPPRLPRPRPRPEDHPRP
shrunken log2 fold change: -0.131

RRIRPRPPRLPRPRPRPEEEPRP
shrunken log2 fold change: 0.163

RRIRPRPPRLPRPRPRPEFNPRP
shrunken log2 fold change: 0.0717

RRIRPRPPRLPRPRPRPEGLPRP
shrunken log2 fold change: 0.491

RRIRPRPPRLPRPRPRPEHKPRP
shrunken log2 fold change: -0.00916

RRIRPRPPRLPRPRPRPEHTPRP
shrunken log2 fold change: -0.112

RRIRPRPPRLPRPRPRPEIFPRP
shrunken log2 fold change: 0.137

RRIRPRPPRLPRPRPRPELLPRP
shrunken log2 fold change: 0.14

RRIRPRPPRLPRPRPRPELVPRP
shrunken log2 fold change: 0.442

RRIRPRPPRLPRPRPRPEMTPRP
shrunken log2 fold change: -0.0182

RRIRPRPPRLPRPRPRPENEPRP
shrunken log2 fold change: 0.0949

RRIRPRPPRLPRPRPRPEPKPRP
shrunken log2 fold change: 2.44

RRIRPRPPRLPRPRPRPEQEPRP
shrunken log2 fold change: 0.278

RRIRPRPPRLPRPRPRPEQTPRP
shrunken log2 fold change: 0.0268

RRIRPRPPRLPRPRPRPETQPRP
shrunken log2 fold change: 0.15

RRIRPRPPRLPRPRPRPFEWPRP
shrunken log2 fold change: -0.124

RRIRPRPPRLPRPRPRPFFCPRP
shrunken log2 fold change: 0.0262

RRIRPRPPRLPRPRPRPFFIPRP
shrunken log2 fold change: -0.249

RRIRPRPPRLPRPRPRPFHFPRP
shrunken log2 fold change: -0.339

RRIRPRPPRLPRPRPRPFHIPRP
shrunken log2 fold change: -0.161

RRIRPRPPRLPRPRPRPFHTPRP
shrunken log2 fold change: -0.569

RRIRPRPPRLPRPRPRPFIDPRP
shrunken log2 fold change: -0.304

RRIRPRPPRLPRPRPRPFILPRP
shrunken log2 fold change: -0.582

RRIRPRPPRLPRPRPRPFKAPRP
shrunken log2 fold change: -0.0573

RRIRPRPPRLPRPRPRPFMWPRP
shrunken log2 fold change: -0.168

RRIRPRPPRLPRPRPRPFNTPRP
shrunken log2 fold change: 0.39

RRIRPRPPRLPRPRPRPFPWPRP
shrunken log2 fold change: -0.0429

RRIRPRPPRLPRPRPRPFQSPRP
shrunken log2 fold change: 0.0035

RRIRPRPPRLPRPRPRPFRYPRP
shrunken log2 fold change: -0.0865

RRIRPRPPRLPRPRPRPFSAPRP
shrunken log2 fold change: 0.0672

RRIRPRPPRLPRPRPRPFSVPRP
shrunken log2 fold change: -0.0603

RRIRPRPPRLPRPRPRPFTQPRP
shrunken log2 fold change: -0.0301

RRIRPRPPRLPRPRPRPFYHPRP
shrunken log2 fold change: -0.547

RRIRPRPPRLPRPRPRPFYLPRP
shrunken log2 fold change: -0.685

RRIRPRPPRLPRPRPRPGAGPRP
shrunken log2 fold change: 0.555

RRIRPRPPRLPRPRPRPGATPRP
shrunken log2 fold change: 0.54

RRIRPRPPRLPRPRPRPGCIPRP
shrunken log2 fold change: -0.0111

RRIRPRPPRLPRPRPRPGGWPRP
shrunken log2 fold change: 0.724

RRIRPRPPRLPRPRPRPGHCPRP
shrunken log2 fold change: 0.0859

RRIRPRPPRLPRPRPRPGHHPRP
shrunken log2 fold change: 0.0565

RRIRPRPPRLPRPRPRPGIAPRP
shrunken log2 fold change: 0.218

RRIRPRPPRLPRPRPRPGISPRP
shrunken log2 fold change: -0.155

RRIRPRPPRLPRPRPRPGKCPRP
shrunken log2 fold change: -0.125

RRIRPRPPRLPRPRPRPGKLPRP
shrunken log2 fold change: -0.4

RRIRPRPPRLPRPRPRPGKQPRP
shrunken log2 fold change: -0.0793

RRIRPRPPRLPRPRPRPGMCPRP
shrunken log2 fold change: -0.0873

RRIRPRPPRLPRPRPRPGMRPRP
shrunken log2 fold change: 0.852

RRIRPRPPRLPRPRPRPGMSPRP
shrunken log2 fold change: 0.0989

RRIRPRPPRLPRPRPRPGNCPRP
shrunken log2 fold change: -0.0898

RRIRPRPPRLPRPRPRPGPAPRP
shrunken log2 fold change: 0.51

RRIRPRPPRLPRPRPRPGPYPRP
shrunken log2 fold change: -0.0184

RRIRPRPPRLPRPRPRPGQVPRP
shrunken log2 fold change: 0.11

RRIRPRPPRLPRPRPRPGSNPRP
shrunken log2 fold change: -0.082

RRIRPRPPRLPRPRPRPGWMPRP
shrunken log2 fold change: -0.0745

RRIRPRPPRLPRPRPRPGYYPRP
shrunken log2 fold change: -0.45

RRIRPRPPRLPRPRPRPHASPRP
shrunken log2 fold change: -0.192

RRIRPRPPRLPRPRPRPHCLPRP
shrunken log2 fold change: -0.374

RRIRPRPPRLPRPRPRPHCSPRP
shrunken log2 fold change: -0.0583

RRIRPRPPRLPRPRPRPHDDPRP
shrunken log2 fold change: -0.421

RRIRPRPPRLPRPRPRPHDHPRP
shrunken log2 fold change: 0.0287

RRIRPRPPRLPRPRPRPHDNPRP
shrunken log2 fold change: -0.347

RRIRPRPPRLPRPRPRPHECPRP
shrunken log2 fold change: -1.31

RRIRPRPPRLPRPRPRPHFLPRP
shrunken log2 fold change: -0.168

RRIRPRPPRLPRPRPRPHFYPRP
shrunken log2 fold change: -0.217

RRIRPRPPRLPRPRPRPHIDPRP
shrunken log2 fold change: -0.215

RRIRPRPPRLPRPRPRPHIFPRP
shrunken log2 fold change: -0.0487

RRIRPRPPRLPRPRPRPHIIPRP
shrunken log2 fold change: -0.19

RRIRPRPPRLPRPRPRPHINPRP
shrunken log2 fold change: -1.16

RRIRPRPPRLPRPRPRPHKPPRP
shrunken log2 fold change: -0.0376

RRIRPRPPRLPRPRPRPHLDPRP
shrunken log2 fold change: 0.158

RRIRPRPPRLPRPRPRPHLMPRP
shrunken log2 fold change: -0.0526

RRIRPRPPRLPRPRPRPHLPPRP
shrunken log2 fold change: -0.126

RRIRPRPPRLPRPRPRPHLVPRP
shrunken log2 fold change: -0.034

RRIRPRPPRLPRPRPRPHNWPRP
shrunken log2 fold change: 0.0255

RRIRPRPPRLPRPRPRPHPAPRP
shrunken log2 fold change: 0.217

RRIRPRPPRLPRPRPRPHRYPRP
shrunken log2 fold change: -0.136

RRIRPRPPRLPRPRPRPHTEPRP
shrunken log2 fold change: 0.0462

RRIRPRPPRLPRPRPRPHVCPRP
shrunken log2 fold change: 0.171

RRIRPRPPRLPRPRPRPHVNPRP
shrunken log2 fold change: -0.38

RRIRPRPPRLPRPRPRPHWPPRP
shrunken log2 fold change: 0.0791

RRIRPRPPRLPRPRPRPHWSPRP
shrunken log2 fold change: 0.26
